The supplement of paper PMC6757056
± gives the standard deviation of the averaged measurements.

B1: library; a variant is named by its letters at N, in order (parent)
chain: GCUGUCACCGAGAAACUGUGAAGUAUAUCUUAAACCUGGGCACUUAAAAGAUAUAUGGAGUUAGUAGUGCAACCUGCUCGGUCUGAUGAGUCCNNNNNNGGACGAAACAGC

Tests used:
[1] = variants of: B1; test: normalized RNA/DNA level without ligand (relative to sTRSVctl = 100) (log10 (% of sTRSVctl)); HEK293T; ligand: cyclic di-GMP (c-di-GMP-II aptamer); higher = less ribozyme self-cleavage, higher mRNA level; conditions: reporter: mCherry (pCS4076), ligand present: no
How it was run: (§1)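 Only sequences with at least 100 DNA reads were analyzed, from HEK293T cells transfected with 4 µg per 6-well well of ribozyme switch library plasmids 72 h before RNA extraction with EDTA. Any ligand was added 1 h before transfection. RNA level was defined as RNA over DNA reads, normalized to a spiked-in non-cleaving sequence or to the top sequences, then scaled and log-transformed. The top set was 25 sequences, and the scaling was ×100 followed by log10.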

[2] = variants of: B1; test: normalized RNA/DNA level with ligand (relative to sTRSVctl = 100) (log10 (% of sTRSVctl)); HEK293T; ligand: cyclic di-GMP (c-di-GMP-II aptamer); ligand concentration (+) RNA-Seq: 1 mM; higher = less ribozyme self-cleavage, higher mRNA level; conditions: reporter: mCherry (pCS4076), ligand present: yes
How it was run: as §1

Variant | normalized RNA/DNA level without ligand (log10) [1] | normalized RNA/DNA level with ligand (log10) [2]
GCUGUCACCGAGAAACUGUGAAGUAUAUCUUAAACCUGGGCACUUAAAAGAUAUAUGGAGUUAGUAGUGCAACCUGCUCGGUCUGAUGAGUCCUGCAGUGGACGAAACAGC [UGCAGU] | 1.66 ± 0.038 | 1.83 ± 0.11
GCUGUCACCGAGAAACUGUGAAGUAUAUCUUAAACCUGGGCACUUAAAAGAUAUAUGGAGUUAGUAGUGCAACCUGCUCGGUCUGAUGAGUCCGUAACUGGACGAAACAGC [GUAACU] | 1.7 ± 0.055 | 1.82 ± 0.13
GCUGUCACCGAGAAACUGUGAAGUAUAUCUUAAACCUGGGCACUUAAAAGAUAUAUGGAGUUAGUAGUGCAACCUGCUCGGUCUGAUGAGUCCCUGUCCGGACGAAACAGC [CUGUCC] | 1.786 ± 0.0046 | 1.92 ± 0.12
GCUGUCACCGAGAAACUGUGAAGUAUAUCUUAAACCUGGGCACUUAAAAGAUAUAUGGAGUUAGUAGUGCAACCUGCUCGGUCUGAUGAGUCCCGGGCAGGACGAAACAGC [CGGGCA] | 1.81 ± 0.064 | 1.9 ± 0.13
GCUGUCACCGAGAAACUGUGAAGUAUAUCUUAAACCUGGGCACUUAAAAGAUAUAUGGAGUUAGUAGUGCAACCUGCUCGGUCUGAUGAGUCCGACGACGGACGAAACAGC [GACGAC] | 1.608 ± 0.0074 | 1.78 ± 0.13
GCUGUCACCGAGAAACUGUGAAGUAUAUCUUAAACCUGGGCACUUAAAAGAUAUAUGGAGUUAGUAGUGCAACCUGCUCGGUCUGAUGAGUCCAAGGCUGGACGAAACAGC [AAGGCU] | 1.71 ± 0.088 | 1.83 ± 0.22
GCUGUCACCGAGAAACUGUGAAGUAUAUCUUAAACCUGGGCACUUAAAAGAUAUAUGGAGUUAGUAGUGCAACCUGCUCGGUCUGAUGAGUCCGAUAUGGGACGAAACAGC [GAUAUG] | 1.52 ± 0.028 | 1.71 ± 0.096
GCUGUCACCGAGAAACUGUGAAGUAUAUCUUAAACCUGGGCACUUAAAAGAUAUAUGGAGUUAGUAGUGCAACCUGCUCGGUCUGAUGAGUCCGAUAUUGGACGAAACAGC [GAUAUU] | 1.61 ± 0.019 | 1.8 ± 0.13
GCUGUCACCGAGAAACUGUGAAGUAUAUCUUAAACCUGGGCACUUAAAAGAUAUAUGGAGUUAGUAGUGCAACCUGCUCGGUCUGAUGAGUCCUGGCCGGGACGAAACAGC [UGGCCG] | 1.9 ± 0.067 | 1.96 ± 0.1
GCUGUCACCGAGAAACUGUGAAGUAUAUCUUAAACCUGGGCACUUAAAAGAUAUAUGGAGUUAGUAGUGCAACCUGCUCGGUCUGAUGAGUCCAUCCAAGGACGAAACAGC [AUCCAA] | 1.56 ± 0.053 | 1.73 ± 0.12
GCUGUCACCGAGAAACUGUGAAGUAUAUCUUAAACCUGGGCACUUAAAAGAUAUAUGGAGUUAGUAGUGCAACCUGCUCGGUCUGAUGAGUCCGUGUGUGGACGAAACAGC [GUGUGU] | 1.595 ± 0.003 | 1.77 ± 0.12
GCUGUCACCGAGAAACUGUGAAGUAUAUCUUAAACCUGGGCACUUAAAAGAUAUAUGGAGUUAGUAGUGCAACCUGCUCGGUCUGAUGAGUCCAACUAGGGACGAAACAGC [AACUAG] | 1.616 ± 0.0088 | 1.78 ± 0.13
GCUGUCACCGAGAAACUGUGAAGUAUAUCUUAAACCUGGGCACUUAAAAGAUAUAUGGAGUUAGUAGUGCAACCUGCUCGGUCUGAUGAGUCCACAACGGGACGAAACAGC [ACAACG] | 1.46 ± 0.1 | 1.65 ± 0.12
GCUGUCACCGAGAAACUGUGAAGUAUAUCUUAAACCUGGGCACUUAAAAGAUAUAUGGAGUUAGUAGUGCAACCUGCUCGGUCUGAUGAGUCCGUUUACGGACGAAACAGC [GUUUAC] | 1.74 ± 0.029 | 1.84 ± 0.13
GCUGUCACCGAGAAACUGUGAAGUAUAUCUUAAACCUGGGCACUUAAAAGAUAUAUGGAGUUAGUAGUGCAACCUGCUCGGUCUGAUGAGUCCCCUUACGGACGAAACAGC [CCUUAC] | 1.71 ± 0.0031 | 1.83 ± 0.12
GCUGUCACCGAGAAACUGUGAAGUAUAUCUUAAACCUGGGCACUUAAAAGAUAUAUGGAGUUAGUAGUGCAACCUGCUCGGUCUGAUGAGUCCGUGACCGGACGAAACAGC [GUGACC] | 1.67 ± 0.065 | 1.824 ± 0.015
GCUGUCACCGAGAAACUGUGAAGUAUAUCUUAAACCUGGGCACUUAAAAGAUAUAUGGAGUUAGUAGUGCAACCUGCUCGGUCUGAUGAGUCCUCCCUUGGACGAAACAGC [UCCCUU] | 1.69 ± 0.056 | 1.86 ± 0.14
GCUGUCACCGAGAAACUGUGAAGUAUAUCUUAAACCUGGGCACUUAAAAGAUAUAUGGAGUUAGUAGUGCAACCUGCUCGGUCUGAUGAGUCCCGAUCAGGACGAAACAGC [CGAUCA] | 1.6 ± 0.026 | 1.74 ± 0.12
GCUGUCACCGAGAAACUGUGAAGUAUAUCUUAAACCUGGGCACUUAAAAGAUAUAUGGAGUUAGUAGUGCAACCUGCUCGGUCUGAUGAGUCCUUCCGCGGACGAAACAGC [UUCCGC] | 1.771 ± 0.0064 | 1.89 ± 0.084
GCUGUCACCGAGAAACUGUGAAGUAUAUCUUAAACCUGGGCACUUAAAAGAUAUAUGGAGUUAGUAGUGCAACCUGCUCGGUCUGAUGAGUCCCACUACGGACGAAACAGC [CACUAC] | 1.64 ± 0.037 | 1.77 ± 0.11
GCUGUCACCGAGAAACUGUGAAGUAUAUCUUAAACCUGGGCACUUAAAAGAUAUAUGGAGUUAGUAGUGCAACCUGCUCGGUCUGAUGAGUCCGACAGGGGACGAAACAGC [GACAGG] | 1.759 ± 0.0092 | 1.85 ± 0.037
GCUGUCACCGAGAAACUGUGAAGUAUAUCUUAAACCUGGGCACUUAAAAGAUAUAUGGAGUUAGUAGUGCAACCUGCUCGGUCUGAUGAGUCCGACGGUGGACGAAACAGC [GACGGU] | 1.633 ± 0.0071 | 1.8 ± 0.11
GCUGUCACCGAGAAACUGUGAAGUAUAUCUUAAACCUGGGCACUUAAAAGAUAUAUGGAGUUAGUAGUGCAACCUGCUCGGUCUGAUGAGUCCGUAGUCGGACGAAACAGC [GUAGUC] | 1.37 ± 0.12 | 1.55 ± 0.054
GCUGUCACCGAGAAACUGUGAAGUAUAUCUUAAACCUGGGCACUUAAAAGAUAUAUGGAGUUAGUAGUGCAACCUGCUCGGUCUGAUGAGUCCUACUAGGGACGAAACAGC [UACUAG] | 1.697 ± 0.012 | 1.84 ± 0.09
GCUGUCACCGAGAAACUGUGAAGUAUAUCUUAAACCUGGGCACUUAAAAGAUAUAUGGAGUUAGUAGUGCAACCUGCUCGGUCUGAUGAGUCCUACAUUGGACGAAACAGC [UACAUU] | 1.59 ± 0.034 | 1.78 ± 0.09
GCUGUCACCGAGAAACUGUGAAGUAUAUCUUAAACCUGGGCACUUAAAAGAUAUAUGGAGUUAGUAGUGCAACCUGCUCGGUCUGAUGAGUCCCGGUCUGGACGAAACAGC [CGGUCU] | 1.56 ± 0.064 | 1.72 ± 0.11
